According to PMC3226724:

Biological target: T1, PriB (Escherichia coli, UniProt P07013 1-104)
T1 sequence: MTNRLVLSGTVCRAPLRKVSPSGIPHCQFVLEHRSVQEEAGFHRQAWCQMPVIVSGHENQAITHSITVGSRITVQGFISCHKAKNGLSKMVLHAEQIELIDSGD
Experiment: sedimentation equilibrium

TTTTTTTTTTTTTTTTTTTTTTTTTT (ssDNA) [5'Fl-dT(pT)25 (called 27-mer)]: binds.
